Results reported in patent publication US20230265167A1, “COMPOSITIONS HAVING NEUROREGENERATIVE APPLICATIONS” (GRIFOLS WORLDWIDE OPERATIONS LIMITED, priority 2020, published 2023).

System: SH-SY5Y cells
Assay: Neurite outgrowth (differentiation) in SH-SY5Y cells, Tubulin Tracker imaging
Format: cell-based, human
Protocol: Transferrin is utilized in cell culture and in-vivo to deliver iron as a nutrient to cells. This is typically accomplished through the actions of holo-transferrin (HoloTf) binding to, and endocytosis by, its cognate receptor CD71, the transferrin receptor 1 (TfR1). Transferrin is typically believed to provide cells with iron as a means to promote and sustain metabolic activity. […] Induction of neuronal differentiation was assessed by morphological parameters of neurite formation (a key element typically used as a marker of neuronal differentiation, neuronal health, and function) according to the procedures of Agholme, 2010. J. of Alzheimer's Disease. Vol. 20:1p 069-108; and Dyberg et al., 2017. PNAS Vol 114 (32), E6603-E6612.
Undifferentiated SH-SY5Y cells were seeded into 96 well clear bottom plates in media containing 0.1% FBS. A serum-free base media was utilized as recommended by the supplier for SH-SY5Y cells (Sigma, Cat #94030304-1VL). Twenty-four hours after seeding cells, a 3× stock solution of ApoTf, final concentrations indicated on the x-axis, in serum free base media was added to the cells. ApoTf was obtained and purified from pooled human plasma and dosed at a final concentration of 0.2 mg/mL.
Cells were allowed to differentiate for 6 days. Neurite growth was assessed by imaging and image analysis. […]
After obtaining images, the MetaExpress Neurite Outgrowth analysis module (Molecular Devices) was used to identify cells, cell bodies, and quantify neurites. […] The Outgrowth Fold Change was determined by setting the untreated control cells to a value of 1 with all other treatments shown relative to untreated control.
Undifferentiated SH-SY5Y cells were seeded and treated as described in Example 1. Neurite growth was assessed by imaging and image analysis. […] After obtaining images, the MetaExpress Neurite Outgrowth analysis module (Molecular Devices) was used to identify cell bodies and quantify neurites. […] The Outgrowth Fold Change was determined by setting the untreated control to a value of 1 with all other treatments shown relative to untreated control. […]

B1: N-mut rec ApoTf: Y95F/Y188F Transferrin N-lobe mutant protein, SEQ ID 4, reduced iron-binding capacity (protein)
chain: VPDKTVRWCAVSEHEATKCQSFRDHMKSVIPSDGPSVACVKKASYLDCIRAIAANEADAVTLDAGLVYDAYLAPNNLKPVVAEFYGSKEDPQTFFYAVAVVKKDSGFQMNQLRGKKSCHTGLGRSAGWNIPIGLLYCDLPEPRKPLEKAVANFFSGSCAPCADGTDFPQLCQLCPGCGCSTLNQYFGFSGAFKCLKDGAGDVAFVKHSTIFENLANKADRDQYELLCLDNTRKPVDEYKDCHLAQVPSHTVVARSMGGKEDLIWELLNQAQEHFGKDKSKEFQLFSSPHGKDLLFKDSAHGFLKVPPRMDAKMYLGYEYVTAIRNLREGTCPEAPTDECKPVKWCALSHHERLKCDEWSVNSVGKIECVSAETTEDCIAKIMNGEADAMSLDGGFVYIAGKCGLVPVLAENYNKSDNCEDTPEAGYFAVAVVKKSASDLTWDNLKGKKSCHTAVGRTAGWNIPMGLLYNKINHCRFDEFFSEGCAPGSKKDSSLCKLCMGSGLNLCEPNNKEGYYGYTGAFRCLVEKGDVAFVKHQTVPQNTGGKNPDPWAKNLNEKDYELLCLDGTRKPVEEYANCHLARAPNHAVVTRKDKEACVHKILRQQQHLFGSNVTDCSGNFCLFRSETKDLLFRDDTVCLAKLHDRNTYEKYLGEEYVKAVGNLRKCSTSSLLEACTFRRP
modifications: Y95F/Y188F mutant
FIG. 3B, proteins at 0.2 mg/mL
  neurogenesis (neurite outgrowth) of SH-SY5Y: almost equal to that of ApoTf and rec ApoTf at inducing differentiation

B2: apo-lactoferrin: structural and functional homologue of apo-transferrin, obtained from Athens Research & Technology (protein, UniProt P02788 20-710, looked up)
Lactotransferrin: GRRRSVQWCAVSQPEATKCFQWQRNMRKVRGPPVSCIKRDSPIQCIQAIAENRADAVTLDGGFIYEAGLAPYKLRPVAAEVYGTERQPRTHYYAVAVVKKGGSFQLNELQGLKSCHTGLRRTAGWNVPIGTLRPFLNWTGPPEPIEAAVARFFSASCVPGADKGQFPNLCRLCAGTGENKCAFSSQEPYFSYSGAFKCLRDGAGDVAFIRESTVFEDLSDEAERDEYELLCPDNTRKPVDKFKDCHLARVPSHAVVARSVNGKEDAIWNLLRQAQEKFGKDKSPKFQLFGSPSGQKDLLFKDSAIGFSRVPPRIDSGLYLGSGYFTAIQNLRKSEEEVAARRARVVWCAVGEQELRKCNQWSGLSEGSVTCSSASTTEDCIALVLKGEADAMSLDGGYVYTAGKCGLVPVLAENYKSQQSSDPDPNCVDRPVEGYLAVAVVRRSDTSLTWNSVKGKKSCHTAVDRTAGWNIPMGLLFNQTGSCKFDEYFSQSCAPGSDPRSNLCALCIGDEQGENKCVPNSNERYYGYTGAFRCLAENAGDVAFVKDVTVLQNTDGNNNEAWAKDLKLADFALLCLDGKRKPVTEARSCHLAMAPNHAVVSRMDKVERLKQVLLHQQAKFGRNGSDCPDKFCLFQSETKNLLFNDNTECLARLHGKTTYEKYLGPQYVAGITNLKKCSTSPLLEACEFLRK
modifications: iron-free apo form
notes: structural and functional homologue of apo-transferrin, obtained from Athens Research & Technology
FIG. 4, proteins at 0.2 mg/mL
  neurogenesis / differentiation of SH-SY5Y: induced differentiation

B3: BDNF: brain-derived neurotrophic factor; NGF superfamily; SEQ ID NO: 6 (protein, listed as Homo sapiens)
chain: MFHQVRRVMTILFLTMVISYFGCMKAAPMKEANIRGQGGLAYPGVRTHGTLESVNGPKAGSRGLTSLADTFEHVIEELLDEDQKVRPNEENNKDADLYTSRVMLSSQVPLEPPLLFLLEEYKNYLDAANMSMRVRRHSDPARRGELSVCDSISEWVTAADKKTAVDMSGGTVTVLEKVPVSKGQLKQYFYETKCNPMGYTKEGCRGIDKRHWNSQCRTTQSYVRALTMDSKKRIGWRFIRIDTSCVCTLTIKRGR
FIGS. 7A-7D, BDNF 25 ng/mL, GDNF 1000 ng/mL, CNTF 250 ng/mL, PACAP 200 nM
  differentiation of SH-SY5Y, factor alone: differentiation was not induced
